Laboratory results reported in patent US20130071921A1 (Pfizer, published 2013).

Experiments:
[1] = biological target: T1, Recombinant human Dkk-1 (R&D Systems cat no. 1096-DK/CF), 10xHis tag at the C terminal (human, UniProt O94907 32-266); assay: SPR (Table 4, headed 37C, BIAcore or ProteOn)
T1 construct: the actual N-terminus of the purified protein is marked in bold italic after residue 30, but the mark is an image lost in the text; also called rhuDkk-1; hDkk-1
T1 sequence: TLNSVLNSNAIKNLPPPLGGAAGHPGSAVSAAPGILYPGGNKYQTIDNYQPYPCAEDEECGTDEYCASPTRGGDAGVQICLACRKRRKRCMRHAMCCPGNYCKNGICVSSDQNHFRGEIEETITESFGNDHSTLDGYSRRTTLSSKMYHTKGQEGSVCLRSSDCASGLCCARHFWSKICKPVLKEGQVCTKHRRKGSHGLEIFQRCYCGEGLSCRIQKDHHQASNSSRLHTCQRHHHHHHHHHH

[2] = biological target: T2, recombinant human Dkk3 (R&D systems Cat No. 1118-DK/CF) (human, UniProt Q9UBP4 22-350); assay: SPR BIAcore, huMabJC18 captured by goat Fab2 anti-human Fc
T2 construct: Bought; also called hDkk-3
T2 sequence (Q9UBP4 22-350 limits assumed): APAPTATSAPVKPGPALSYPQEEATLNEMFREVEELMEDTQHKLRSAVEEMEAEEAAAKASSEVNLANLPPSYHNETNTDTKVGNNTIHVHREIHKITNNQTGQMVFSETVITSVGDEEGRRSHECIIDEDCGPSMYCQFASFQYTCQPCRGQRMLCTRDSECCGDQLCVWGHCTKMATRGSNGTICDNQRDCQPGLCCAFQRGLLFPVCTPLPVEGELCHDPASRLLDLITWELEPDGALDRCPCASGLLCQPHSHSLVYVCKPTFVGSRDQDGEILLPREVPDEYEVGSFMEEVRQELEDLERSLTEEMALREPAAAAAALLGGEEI

[3] = biological target: T1, Recombinant human Dkk-1 (R&D Systems …); assay: SPR BIAcore 25C, huMabJC18 IgG amine-coupled, human Dkk1 injected
Procedure: The affinity of huMabJC18 to human, mouse or rat Dkk1 was determined by using the BIAcore3000™ surface plasmon resonance (SPR) system (BIAcore Inc., Piscataway, N.J.), equipped with a CM5 sensor chip (BIAcore AB, Uppsala, Sweden). For the huMabJC18-human Dkk1 interaction analysis, reaction surfaces were generated by amine coupling of huMabJC18 to three flow cells (Fc2, Fc3 and Fc4). CM5 chips were activated with N-ethyl-N′-(3-dimethylaminopropyl)-carbodiinide hydrochloride (EDC) and N-hydroxysuccinimide (NHS) according to the supplier's instructions. The huMabJC18 IgG was diluted into 10 mM sodium acetate pH 4.0 and injected over the activated chip at a concentration of 30 μg/ml.
Using variable flow time across the individual chip channels, a range of antibody density was achieved: 200-800 response units (RU). The IgG and reference surfaces were then saturated with goat Fab2 anti-human Fc (Cappel 55053) to prevent nonspecific binding by Dkk-1 to the chip surface. The chip was then blocked with ethanolamine. Assays were performed at 25° C., with a BIAcore running buffer composed of HBS-EP (0.01M HEPES, pH 7.4, 0.15 NaCl, 3 mM EDTA, 0.005% Surfactant P20)+2 mg/ml BSA+2 mg/ml CM Dextran. A five membered, three fold dilution series starting at 30.9 nM purified human Dkk1 (R&D Systems) protein was injected for 1.5 min at 100 μL/min, and dissociation was monitored for […]. Kinetic association rates (kₒₙ) and dissociation rates (koff) were obtained simultaneously by fitting the data to a 1:1 Langmuir binding model (Karlsson, R. Roos, H. Fagerstam, L. Petersson, B. (1994). Methods Enzymology 6. 99-110) using the BIAevaluation program. Equilibrium dissociation constant (KD) values were calculated as koff/kₒₙ.

[4] = biological target: T3, recombinant rat Dkk-1 (R&D systems Cat No. 4010-DK/CF) (rat); assay: SPR BIAcore, huMabJC18 captured by goat Fab2 anti-human Fc, rat Dkk-1 injected
T3 construct: Bought
Procedure: For the interaction analyses of huMabJC18 with mouse or rat Dkk-1, low-levels of huMabJC18 (typically, 100-400 response units) were captured on individual flow cells by goat Fab2 anti-human Fc, which was pre-immobilized to the CM5 chip surface. A goat Fab2 anti-human Fc-saturated flow cell containing no humanized antibody served as reference channel. Mouse or rat Dkk-1 (R&D Systems) was titrated over the chip using 70.1 nM or 30.2 nM as top concentration, respectively, of a three-fold dilution series Association and dissociation phases were monitored at 100 μL/min for 90 seconds and 30 minutes, respectively. Capture surfaces for all experiments were regenerated with two 30 second pulses of […] H₃PO₄, except for the amine-coupled huMabJC18 surface used in the human Dkk-1 experiment, which was not regenerated.

[5] = biological target: T4, recombinant mouse Dkk-4 (R&D systems Cat No. 3105-DK/CF) (mouse, UniProt Q8VEJ3 19-221, limits assumed); assay: SPR BIAcore, huMabJC18 captured by goat Fab2 anti-human Fc, mDkk-4 titrated from 32.3 nM
T4 construct: Bought; also called mDkk-4
T4 sequence (looked up): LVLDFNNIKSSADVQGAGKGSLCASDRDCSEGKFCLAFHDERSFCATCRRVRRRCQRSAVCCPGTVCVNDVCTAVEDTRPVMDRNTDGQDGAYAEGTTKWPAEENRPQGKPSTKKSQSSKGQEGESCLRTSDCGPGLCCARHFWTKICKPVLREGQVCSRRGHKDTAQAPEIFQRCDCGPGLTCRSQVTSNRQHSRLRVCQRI

B1: huMabJC18, fully humanized anti-Dkk-1 monoclonal antibody (antibody, human IgG2, kappa, V domains shown)
VH: EVQLVESGGGLVQPGGSLRLSCAASGFTFSSYAISWVRQAPGKGLEWVASVSGTGLGFQTYYPDSVKGRFTISRDNAKNSLYLQMNSLRAEDTAVYYCATSLENYAFDYWGQGTTVTVSS
VL: EIVLTQSPATLSLSPGERATLSCRASESVDDFGISFINWYQQKPGQAPRLLIYAGSKQGSGIPARFSGSGSGTDFTLTISSLEPEDFAVYYCQQLKEVPPTFGGGTKVEIKR
notes: IgG2(delta a: A329S, P330S), kappa; also called huMabJC18 IgG
Kd [1]: < 0.002 nM | koff [1]: < 2e-06 s⁻¹ | binding result [2]: no binding | Kd [3]: < 0.002 nM | T1/2 [3]: > 96.3 h | koff [3]: < 2e-06 s⁻¹ | kon [3]: > 1.3e+06 M⁻¹ s⁻¹ | Kd [4]: < 0.1 nM | T1/2 [4]: 0.92 h | koff [4]: 0.00021 s⁻¹ | kon [4]: > 1.3e+06 M⁻¹ s⁻¹ | Kd [5]: < 0.03 nM | T1/2 [5]: > 4.94 h | koff [5]: < 3.9e-05 s⁻¹ | kon [5]: > 1.3e+06 M⁻¹ s⁻¹
